Data published in US20200339680A1.

How the values were obtained:
human TMEM106B (human) [1] = target: human TMEM106B (human) (UniProt Q9NUM4); test: FACS U251
mouse TMEM106B (mouse) = mouse TMEM106B (mouse) (UniProt Q80X71); test: FACS Neuro2a
human TMEM106B (human) [2] = target: human TMEM106B (human) (UniProt Q9NUM4); test: FACS A549
human TMEM106B (human) [3] = target: human TMEM106B (human) (UniProt Q9NUM4); test: FACS HeLa

MFI (human TMEM106B (human) [1]) | MFI (mouse TMEM106B (mouse)) | MFI (human TMEM106B (human) [2]) | MFI (human TMEM106B (human) [3]) | Substance
164 MFI | 216 MFI | 95 MFI | 143 MFI | Negative ctrl #3 (antibody)
165 MFI | 220 MFI | 148 MFI | 152 MFI | Negative ctrl #1 (antibody)
165 MFI | 235 MFI | 162 MFI | 149 MFI | Negative ctrl #2 (antibody)
